Measurements as given in patent US8309072B2, “Irreversibly-inactivated pepsinogen fragments for modulating immune function” (The Zhabilov Trust, priority 2004, dated 2012).
“Also recorded” adds a separate entry of the source. Where no end group is shown, it is not given here.

Columns and labels:
[1] = target: gp96 (Homo sapiens, UniProt P14625); test: In vitro binding of IPF with heat shock protein gp96
Excerpt: FIG. 9 is a graph showing binding of an IPF with heat shock protein gp96 at dilutions of IPF 1/2500, IPF 1/500 and IPF 1/100, according to one embodiment of the present invention. A number of approaches may be used to detect complexing between IPF and gp96. By way of example, one such approach may be to obtain specific antibodies against IPF and gp96 and to build a sandwich immunoassay by suitable methods known in the art to detect the presence of these protein complexes. To detect binding of gp96 to IPF, the antigen may be coated on a plate to capture proteins from the sample and then report the binding with a specific detection antibody. The secondary (or detection) antibody may be directly labeled with MSD SULFO-TAG NHS ester or a SULFO-TAG-labeled anti-species, e.g., anti-mouse if the […] antibody is raised in mouse and the […] antibody is raised in a different species than the capture or primary antibody. Antibodies specific to IPF-gp96 complexes may also be used.

[2] = Biacore (SPR) binding of IPF to human serum; settings: in vitro
Description: (§1) BIACORE assays were used for binding affinity. This technology measures mass concentration of biomolecules close to a surface. The surface is made specific by attaching one of the interacting partners. Sample containing the other partner(s) flows over the surface: when molecules from the sample bind to the interactant attached to the surface, the local concentration changes and an SPR (surface plasmon resonance) response is measured. The response is directly proportional to the mass of molecules that bind to the surface. The SPR response may be expressed by resonance units (RU). One RU represents change of 0.0001 in the angle of the intensity minimum which is equivalent to a change in concentration of […].
(§2) The exact conversion factor between RU and surface concentration depends on properties of the sensor surface and the nature of the molecule responsible for the concentration change.
(§3) The assays for these bindings were conducted by The Institute for Molecular Medicine using standard protocols.

[3] = target: human CD4 (Homo sapiens, UniProt P01730); test: Biacore (SPR) binding of IPF to human CD4; settings: in vitro
Description: as §1, §2, §3
The BIACORE biosensor instrument for detecting compound ligand interaction. BIACORE may capture proteins including molecules from ctyosolic or tissue extracts on sensor surfaces and measure the binding kinetics. SPR is an optical technique that measures the refractive index change occurring at the sensor liquid-fluid interface layer. […]

[4] = stated in contrast to IPF; cited from earlier work

Sequence of gp96 (P14625 22-803): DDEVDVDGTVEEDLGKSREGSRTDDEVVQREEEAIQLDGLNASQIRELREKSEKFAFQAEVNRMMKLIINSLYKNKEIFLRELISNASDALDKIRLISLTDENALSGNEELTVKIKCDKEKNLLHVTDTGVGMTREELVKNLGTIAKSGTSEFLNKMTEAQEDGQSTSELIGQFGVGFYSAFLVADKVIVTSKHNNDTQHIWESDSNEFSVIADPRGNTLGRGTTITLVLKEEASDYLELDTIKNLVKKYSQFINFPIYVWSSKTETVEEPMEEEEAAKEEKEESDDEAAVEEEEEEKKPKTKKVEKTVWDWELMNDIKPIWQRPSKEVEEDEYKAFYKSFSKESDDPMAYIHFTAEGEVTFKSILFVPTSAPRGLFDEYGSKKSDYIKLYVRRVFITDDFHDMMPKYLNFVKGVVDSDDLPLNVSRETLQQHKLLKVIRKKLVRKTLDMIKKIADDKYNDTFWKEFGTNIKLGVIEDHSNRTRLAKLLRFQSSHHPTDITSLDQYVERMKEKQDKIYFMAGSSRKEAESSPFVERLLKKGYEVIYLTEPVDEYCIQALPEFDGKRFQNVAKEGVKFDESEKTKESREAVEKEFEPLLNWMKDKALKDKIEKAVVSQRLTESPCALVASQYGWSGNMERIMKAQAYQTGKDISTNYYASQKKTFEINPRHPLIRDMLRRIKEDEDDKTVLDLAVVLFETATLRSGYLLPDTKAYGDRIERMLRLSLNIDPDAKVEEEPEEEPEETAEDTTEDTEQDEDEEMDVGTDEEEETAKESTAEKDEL

Substance	in vitro binding affinity for gp96 [1]	other results
IPF-1: peptide of SEQ ID NO 1, TLTSGGGAIALPPSMAAPPLGPVAPLTGAIHAPTXG, fragment of approximately 45 kDa from porcine pepsinogen (not fully specified; X: residue not identified in the source; listed as Sus scrofa)	significant in vitro binding affinity	–
IPF-2: peptide of SEQ ID NO 2, TLSTATGGAIPPVAAMPPGLVAPTHGPAIHP, from porcine pepsinogen (listed as Sus scrofa)	significant in vitro binding affinity	–
IPF-3: peptide of SEQ ID NO 3, NXVPVSVEGYXQITLDSITX, fragment of approximately 13.5 kDa from porcine pepsinogen (not fully specified; X: residue not identified in the source; listed as Sus scrofa)	significant in vitro binding affinity	–
IPF-4: peptide of SEQ ID NO 4, MTLTTGSGAIAPAMPPGLPPHTGAIHAPM, from porcine pepsinogen (listed as Sus scrofa)	significant in vitro binding affinity	–
IPF-5: peptide of SEQ ID NO 5, CCATSGPCGAVMILTPHLTA, from porcine pepsinogen (listed as Sus scrofa)	significant in vitro binding affinity	–
IPF-6: antiviral peptide characterized by SEQ ID NO 6, GDEPLENYLDTEYF, isolated from 45 kDa band of porcine pepsinogen preparation (listed as Sus scrofa)	–	binding with human serum [2]: demonstrates binding in vitro; binding with human CD4+ cells [3]: significant in vitro binding affinity; also recorded: demonstrates binding in vitro
Pepsin: porcine pepsin A, the starting material, compared for pI	–	pI [4]: low
